Patent publication US20190100563A1 (UNIVERSITY COURT OF THE UNIVERSITY OF EDINBURGH, published 2019)

B1: PspC (37-110) (other)
chain: ATENEGSTQAATSSNMAKTEHRKAAKQVVDEYIEKMLREIQLDRRKHTQNVALNIKLSAIKTKYLRELNVLEEK
B2: SUMO (fusion partner alone) (other, UniProt Q12306 3-98, looked up)
chain: DSEVNQEAKPEVKPEVKPETHINLKVSDGSSEIFFKIKKTTPLRRLMEAFAKRQGKEMDSLRFLYDGIRIQADQTPEDLDMEDNDIIEAHREQIGG
B3: PspC (37-120) (other)
chain: ATENEGSTQAATSSNMAKTEHRKAAKQVVDEYIEKMLREIQLDRRKHTQNVALNIKLSAIKTKYLRELNVLEEKSKDELPSEIK
B4: rCFH-D1119G:PspCN complex (other)
chain 1: EDCNELPPRRNTEILTGSWSDQTYPEGTQAIYKCRPGYRSLGNVIMVCRKGEWVALNPLRKCQKRPCGHPGDTPFGTFTLTGGNVFEYGVKAVYTCNEGYQLLGEINYRECDTDGWTNDIPICEVVKCLPVTAPENGKIVSSAMEPDREYHFGQAVRFVCNSGYKIEGDEEMHCSDDGFWSKEKPKCVEISCKSPDVINGSPISQKIIYKENERFQYKCNMGYEYSERGDAVCTESGWRPLPSCEEKSCDNPYIPNGDYSPLRIKHRTGDEITYQCRNGFYPATRGNTAKCTSTGWIPAPRCTLKPCDYPDIKHGGLYHENMRRPYFPVAVGKYYSYYCDEHFETPSGSYWDHIHCTQDGWSPAVPCLRKCYFPYLENGYNQNYGRKFVQGKSIDVACHPGYALPKAQTTVTCMENGWSPTPRCIRVKTCSKSSIDIENGFISESQYTYALKEKAKYQCKLGYVTADGETSGSITCGKDGWSAQPTCIKSCDIPVFMNARTKNDFTWFKLNDTLDYECHDGYESNTGSTTGSIVCGYNGWSDLPICYERECELPKIDVHLVPDRKKDQYKVGEVLKFSCKPGFTIVGPNSVQCYHFGLSPDLPICKEQVQSCGPPPELLNGNVKEKTKEEYGHSEVVEYYCNPRFLMKGPNKIQCVDGEWTTLPVCIVEESTCGDIPELEHGWAQLSSPPYYYGDSVEFNCSESFTMIGHRSITCIHGVWTQLPQCVAIDKLKKCKSSNLIILEEHLKNKKEFDHNSNIRYRCRGKEGWIHTVCINGRWDPEVNCSMAQIQLCPPPPQIPNSHNMTTTLNYRDGEKVSVLCQENYLIQEGEEITCKDGRWQSIPLCVEKIPCSQPPQIEHGTINSSRSSQESYAHGTKLSYTCEGGFRISEENETTCYMGKWSSPPQCEGLPCKSPPEISHGVVAHMSDSYQYGEEVTYKCFEGFGIDGPAIAKCLGEKWSHPPSCIKTDCLSLPSFENAIPMGEKKDVYKAGEQVTYTCATYYKMDGASNVTCINSRWTGRPTCRDTSCVNPPTVQNAYIVSRQMSKYPSGERVRYQCRSPYEMFGDEEVMCLNGNWTEPPQCKDSTGKCGPPPPIDNGGITSFPLSVYAPASSVEYQCQNLYQLEGNKRITCRNGQWSEPPKCLHPCVISREIMENYNIALRWTAKQKLYSRTGESVEFVCKRGYRLSSRSHTLRTTCWDGKLEYPTCAKR
chain 2: ATENEGSTQAATSSNMAKTEHRKAAKQVVDEYIEKMLREIQLDRRKHTQNVALNIKLSAIKTKYLRELNVLEEKSKDELPSEIKAKLDAAFEKFKKDTLKPGEK
notes: also called PspCN:CFH (D1119G)
B5: rCFH:PspCN complex (other)
chain 1: EDCNELPPRRNTEILTGSWSDQTYPEGTQAIYKCRPGYRSLGNVIMVCRKGEWVALNPLRKCQKRPCGHPGDTPFGTFTLTGGNVFEYGVKAVYTCNEGYQLLGEINYRECDTDGWTNDIPICEVVKCLPVTAPENGKIVSSAMEPDREYHFGQAVRFVCNSGYKIEGDEEMHCSDDGFWSKEKPKCVEISCKSPDVINGSPISQKIIYKENERFQYKCNMGYEYSERGDAVCTESGWRPLPSCEEKSCDNPYIPNGDYSPLRIKHRTGDEITYQCRNGFYPATRGNTAKCTSTGWIPAPRCTLKPCDYPDIKHGGLYHENMRRPYFPVAVGKYYSYYCDEHFETPSGSYWDHIHCTQDGWSPAVPCLRKCYFPYLENGYNQNYGRKFVQGKSIDVACHPGYALPKAQTTVTCMENGWSPTPRCIRVKTCSKSSIDIENGFISESQYTYALKEKAKYQCKLGYVTADGETSGSITCGKDGWSAQPTCIKSCDIPVFMNARTKNDFTWFKLNDTLDYECHDGYESNTGSTTGSIVCGYNGWSDLPICYERECELPKIDVHLVPDRKKDQYKVGEVLKFSCKPGFTIVGPNSVQCYHFGLSPDLPICKEQVQSCGPPPELLNGNVKEKTKEEYGHSEVVEYYCNPRFLMKGPNKIQCVDGEWTTLPVCIVEESTCGDIPELEHGWAQLSSPPYYYGDSVEFNCSESFTMIGHRSITCIHGVWTQLPQCVAIDKLKKCKSSNLIILEEHLKNKKEFDHNSNIRYRCRGKEGWIHTVCINGRWDPEVNCSMAQIQLCPPPPQIPNSHNMTTTLNYRDGEKVSVLCQENYLIQEGEEITCKDGRWQSIPLCVEKIPCSQPPQIEHGTINSSRSSQESYAHGTKLSYTCEGGFRISEENETTCYMGKWSSPPQCEGLPCKSPPEISHGVVAHMSDSYQYGEEVTYKCFEGFGIDGPAIAKCLGEKWSHPPSCIKTDCLSLPSFENAIPMGEKKDVYKAGEQVTYTCATYYKMDGASNVTCINSRWTGRPTCRDTSCVNPPTVQNAYIVSRQMSKYPSGERVRYQCRSPYEMFGDEEVMCLNGNWTEPPQCKDSTGKCGPPPPIDNGDITSFPLSVYAPASSVEYQCQNLYQLEGNKRITCRNGQWSEPPKCLHPCVISREIMENYNIALRWTAKQKLYSRTGESVEFVCKRGYRLSSRSHTLRTTCWDGKLEYPTCAKR
chain 2: ATENEGSTQAATSSNMAKTEHRKAAKQVVDEYIEKMLREIQLDRRKHTQNVALNIKLSAIKTKYLRELNVLEEKSKDELPSEIKAKLDAAFEKFKKDTLKPGEK
notes: also called CFH (wt):PspCN
B6: Recombinant human CFH, wild-type sequence, from Pichia pastoris (other)
chain: EDCNELPPRRNTEILTGSWSDQTYPEGTQAIYKCRPGYRSLGNVIMVCRKGEWVALNPLRKCQKRPCGHPGDTPFGTFTLTGGNVFEYGVKAVYTCNEGYQLLGEINYRECDTDGWTNDIPICEVVKCLPVTAPENGKIVSSAMEPDREYHFGQAVRFVCNSGYKIEGDEEMHCSDDGFWSKEKPKCVEISCKSPDVINGSPISQKIIYKENERFQYKCNMGYEYSERGDAVCTESGWRPLPSCEEKSCDNPYIPNGDYSPLRIKHRTGDEITYQCRNGFYPATRGNTAKCTSTGWIPAPRCTLKPCDYPDIKHGGLYHENMRRPYFPVAVGKYYSYYCDEHFETPSGSYWDHIHCTQDGWSPAVPCLRKCYFPYLENGYNQNYGRKFVQGKSIDVACHPGYALPKAQTTVTCMENGWSPTPRCIRVKTCSKSSIDIENGFISESQYTYALKEKAKYQCKLGYVTADGETSGSITCGKDGWSAQPTCIKSCDIPVFMNARTKNDFTWFKLNDTLDYECHDGYESNTGSTTGSIVCGYNGWSDLPICYERECELPKIDVHLVPDRKKDQYKVGEVLKFSCKPGFTIVGPNSVQCYHFGLSPDLPICKEQVQSCGPPPELLNGNVKEKTKEEYGHSEVVEYYCNPRFLMKGPNKIQCVDGEWTTLPVCIVEESTCGDIPELEHGWAQLSSPPYYYGDSVEFNCSESFTMIGHRSITCIHGVWTQLPQCVAIDKLKKCKSSNLIILEEHLKNKKEFDHNSNIRYRCRGKEGWIHTVCINGRWDPEVNCSMAQIQLCPPPPQIPNSHNMTTTLNYRDGEKVSVLCQENYLIQEGEEITCKDGRWQSIPLCVEKIPCSQPPQIEHGTINSSRSSQESYAHGTKLSYTCEGGFRISEENETTCYMGKWSSPPQCEGLPCKSPPEISHGVVAHMSDSYQYGEEVTYKCFEGFGIDGPAIAKCLGEKWSHPPSCIKTDCLSLPSFENAIPMGEKKDVYKAGEQVTYTCATYYKMDGASNVTCINSRWTGRPTCRDTSCVNPPTVQNAYIVSRQMSKYPSGERVRYQCRSPYEMFGDEEVMCLNGNWTEPPQCKDSTGKCGPPPPIDNGDITSFPLSVYAPASSVEYQCQNLYQLEGNKRITCRNGQWSEPPKCLHPCVISREIMENYNIALRWTAKQKLYSRTGESVEFVCKRGYRLSSRSHTLRTTCWDGKLEYPTCAKR
notes: also called rCFH; CFH (wt)
B7: Recombinant human CFH (D1119G) from Pichia pastoris (other)
chain: EDCNELPPRRNTEILTGSWSDQTYPEGTQAIYKCRPGYRSLGNVIMVCRKGEWVALNPLRKCQKRPCGHPGDTPFGTFTLTGGNVFEYGVKAVYTCNEGYQLLGEINYRECDTDGWTNDIPICEVVKCLPVTAPENGKIVSSAMEPDREYHFGQAVRFVCNSGYKIEGDEEMHCSDDGFWSKEKPKCVEISCKSPDVINGSPISQKIIYKENERFQYKCNMGYEYSERGDAVCTESGWRPLPSCEEKSCDNPYIPNGDYSPLRIKHRTGDEITYQCRNGFYPATRGNTAKCTSTGWIPAPRCTLKPCDYPDIKHGGLYHENMRRPYFPVAVGKYYSYYCDEHFETPSGSYWDHIHCTQDGWSPAVPCLRKCYFPYLENGYNQNYGRKFVQGKSIDVACHPGYALPKAQTTVTCMENGWSPTPRCIRVKTCSKSSIDIENGFISESQYTYALKEKAKYQCKLGYVTADGETSGSITCGKDGWSAQPTCIKSCDIPVFMNARTKNDFTWFKLNDTLDYECHDGYESNTGSTTGSIVCGYNGWSDLPICYERECELPKIDVHLVPDRKKDQYKVGEVLKFSCKPGFTIVGPNSVQCYHFGLSPDLPICKEQVQSCGPPPELLNGNVKEKTKEEYGHSEVVEYYCNPRFLMKGPNKIQCVDGEWTTLPVCIVEESTCGDIPELEHGWAQLSSPPYYYGDSVEFNCSESFTMIGHRSITCIHGVWTQLPQCVAIDKLKKCKSSNLIILEEHLKNKKEFDHNSNIRYRCRGKEGWIHTVCINGRWDPEVNCSMAQIQLCPPPPQIPNSHNMTTTLNYRDGEKVSVLCQENYLIQEGEEITCKDGRWQSIPLCVEKIPCSQPPQIEHGTINSSRSSQESYAHGTKLSYTCEGGFRISEENETTCYMGKWSSPPQCEGLPCKSPPEISHGVVAHMSDSYQYGEEVTYKCFEGFGIDGPAIAKCLGEKWSHPPSCIKTDCLSLPSFENAIPMGEKKDVYKAGEQVTYTCATYYKMDGASNVTCINSRWTGRPTCRDTSCVNPPTVQNAYIVSRQMSKYPSGERVRYQCRSPYEMFGDEEVMCLNGNWTEPPQCKDSTGKCGPPPPIDNGGITSFPLSVYAPASSVEYQCQNLYQLEGNKRITCRNGQWSEPPKCLHPCVISREIMENYNIALRWTAKQKLYSRTGESVEFVCKRGYRLSSRSHTLRTTCWDGKLEYPTCAKR
notes: also called rCFH-D1119G; rCFH (D1119G)
B8: PspC (62-140) (other)
chain: KQVVDEYIEKMLREIQLDRRKHTQNVALNIKLSAIKTKYLRELNVLEEKSKDELPSEIKAKLDAAFEKFKKDTLKPGEK
B9: PspC (37-130) (other)
chain: ATENEGSTQAATSSNMAKTEHRKAAKQVVDEYIEKMLREIQLDRRKHTQNVALNIKLSAIKTKYLRELNVLEEKSKDELPSEIKAKLDAAFEKF
B10: sPspCNR1 (N-terminally hexaHis-SUMO-tagged PspC residues 37-292, strain D39, including the R1 domain) (other)
chain: ATENEGSTQAATSSNMAKTEHRKAAKQVVDEYIEKMLREIQLDRRKHTQNVALNIKLSAIKTKYLRELNVLEEKSKDELPSEIKAKLDAAFEKFKKDTLKPGEKVAEAKKKVEEAKKKAEDQKEEDRRNYPTNTYKTLELEIAEFDVKVKEAELELVKEEAKESRNEGTIKQAKEKVESKKAEATRLENIKTDRKKAEEEAKRKADGKLKEANVATSDQGKPKGRAKRGVPGELATPDKKENDAKSSDSSVGEETL
notes: not shown: N-terminal hexaHis-SUMO tag from the pE-SUMOpro Kan vector

What was measured:
[1] = biological target: T1, Human complement factor H purified from plasma (human, UniProt P08603 19-1231); assay: SPR, same assay as for PspCN (37-140)
T1 construct: also called Plasma CFH; plasma-purified CFH

[2] = biological target: T1, Human complement factor H purified from …; assay: SPR
[3] = biological target: Human C3b (plasma-purified) (human, UniProt P01024 23-667; P01024 749-1663); assay: SPR, amine-coupled C3b on C1 chip, equilibrium 1:1 fit
Sequence of Human C3b (plasma-purified) (P01024 23-667 limits assumed, chain 1 of 2): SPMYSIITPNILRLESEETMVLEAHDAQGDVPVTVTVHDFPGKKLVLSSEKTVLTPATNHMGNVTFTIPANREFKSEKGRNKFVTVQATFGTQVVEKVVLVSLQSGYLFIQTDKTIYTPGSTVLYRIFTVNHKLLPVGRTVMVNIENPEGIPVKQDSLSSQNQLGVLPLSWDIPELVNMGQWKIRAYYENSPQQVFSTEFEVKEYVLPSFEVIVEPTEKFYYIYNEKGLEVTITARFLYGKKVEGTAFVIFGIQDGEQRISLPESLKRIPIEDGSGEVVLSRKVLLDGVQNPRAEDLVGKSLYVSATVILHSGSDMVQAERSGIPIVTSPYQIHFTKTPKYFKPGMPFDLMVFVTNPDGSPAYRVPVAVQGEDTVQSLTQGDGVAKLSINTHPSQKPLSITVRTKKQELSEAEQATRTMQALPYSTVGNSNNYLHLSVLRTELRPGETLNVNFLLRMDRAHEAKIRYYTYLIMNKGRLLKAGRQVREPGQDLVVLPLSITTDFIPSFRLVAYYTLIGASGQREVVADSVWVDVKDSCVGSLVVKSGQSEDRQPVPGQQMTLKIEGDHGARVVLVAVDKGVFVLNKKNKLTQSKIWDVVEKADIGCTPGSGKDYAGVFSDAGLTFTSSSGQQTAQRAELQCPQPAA
Sequence of Human C3b (plasma-purified) (P01024 749-1663 limits assumed, chain 2 of 2): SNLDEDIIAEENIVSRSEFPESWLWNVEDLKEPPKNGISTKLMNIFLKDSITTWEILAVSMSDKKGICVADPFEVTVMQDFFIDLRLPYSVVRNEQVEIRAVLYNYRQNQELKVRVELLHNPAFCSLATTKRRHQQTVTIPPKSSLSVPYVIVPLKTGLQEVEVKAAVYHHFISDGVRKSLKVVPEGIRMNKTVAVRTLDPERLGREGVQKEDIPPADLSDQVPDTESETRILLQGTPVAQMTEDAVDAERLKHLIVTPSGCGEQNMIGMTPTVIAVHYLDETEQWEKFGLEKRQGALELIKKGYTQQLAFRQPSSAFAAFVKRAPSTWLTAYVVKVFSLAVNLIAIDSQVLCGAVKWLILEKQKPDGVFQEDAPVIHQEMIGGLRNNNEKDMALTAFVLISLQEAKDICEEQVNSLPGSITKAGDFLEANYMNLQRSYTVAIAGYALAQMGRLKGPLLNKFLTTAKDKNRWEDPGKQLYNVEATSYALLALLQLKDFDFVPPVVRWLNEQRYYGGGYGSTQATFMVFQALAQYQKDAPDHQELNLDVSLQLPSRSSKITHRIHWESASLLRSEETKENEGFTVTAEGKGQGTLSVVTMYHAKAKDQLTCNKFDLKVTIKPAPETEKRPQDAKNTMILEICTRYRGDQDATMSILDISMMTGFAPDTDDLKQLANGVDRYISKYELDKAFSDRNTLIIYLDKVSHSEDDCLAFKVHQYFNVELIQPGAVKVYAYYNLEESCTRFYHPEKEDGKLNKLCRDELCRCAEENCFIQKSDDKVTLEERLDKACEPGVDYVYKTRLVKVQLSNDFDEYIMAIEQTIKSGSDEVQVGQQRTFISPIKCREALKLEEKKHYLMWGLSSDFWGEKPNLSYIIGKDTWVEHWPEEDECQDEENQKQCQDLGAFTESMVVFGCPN
Experimental: The sensor chip was regenerated by 2×30 s injections of 1 M NaCl. Data were analysed using the Biacore evaluation software and equilibrium affinity parameters were calculated using a 1:1 binding affinity model.
Commercially sources plasma-purified human C3b, C3c and C3d were immobilized using standard amine coupling to different channels of the same C1 SPR chip (Biacore).

[4] = biological target: T1, Human complement factor H purified from …; assay: not stated there (SPR in the examples)

Binder	decrease in binding affinity against PspCN (37-140) [1]	Kd [3] [nM]	also measured
B1	≥ 3 orders of magnitude	–	–
B2	–	–	binding result [2]: no binding
B3	≥ 3 orders of magnitude	–	–
B4	–	320	–
B5	–	160	–
B6	–	580	–
B7	–	540	–
B8	–	–	Kd [4]: ~0.05 pM
B9	≥ 3 orders of magnitude	–	–
B10	–	–	binding result [2]: binds
